Series [1] relates to homoserine O-succinyltransferase (metA). The experiment in a line: Feed back resistance of mutant metA in the presence of 100 mM methionine. It counts as biochemical, Escherichia coli. The settings on record: w/ 100 mM Met; control without Met = 100. On the procedure: To increase production of O-succinylhomoserine which is L-methionine precursor, overexpression of feed-back resistant metA gene encoding homoserine O-succinyltransferase was performed. PCT/US2007/009146 discloses the method for preparing feed-back resistant metA gene and activity of that.
The sequence of the feed-back resistant metA 10 gene is represented in SEQ. ID. NO: 13 and the amino acid sequence encoding by the gene is represented in SEQ. ID. NO: 14. The sequence of metA 11 gene is represented in SEQ. ID. NO: 15 and the amino acid sequence encoding by the gene is represented in SEQ. ID. NO: 16. The sequence of metA 32 gene is represented in SEQ. ID. NO: 17 and the amino acid sequence encoding by the gene is represented in SEQ. ID. NO: 18. The sequence of metA 37 gene is represented in SEQ. ID. NO: 19 and the amino acid sequence encoding by the gene is represented in SEQ. ID. NO: 20. The sequence of metA 41 gene is represented in SEQ. ID. NO: 21 and the amino acid sequence encoding by the gene is represented in SEQ. ID. NO: 22 (PCT/US2007/009146).

Another series concerns W3-BTJA strain. Briefly: O-succinylhomoserine production of feed back resistant metA in W3-BTJA strain, Erlenmeyer flask culture. The class given is cell-based, E. coli. The settings on record: for O-succinylhomoserine production (%): metA plasmid in W3-BTJA strain, flask culture 64 hours, HPLC, wild type = 100%; for O-succinylhomoserine production compared with wild type: metA vector in W3-BTJA strain, flask culture. As for the experimental part:
The vector was electroporated into W3-BTJA strain and production capacity of the strain was checked using Erlenmeyer flask culture as described in Example 2-1, O-succinylhomoserine production of modified strain is measured, based on 100% of O-succinylhomoserine production of wild type strain.
To measure the methionine precursor production of each strain constructed in Example 1, Erlenmeyer flask culture was performed. Each strain was cultured on LB plate media at 31° C. for overnight. A single colony was inoculated in 3 ml of LB medium, followed by culture at 31° C. for 5 hours. The culture solution was 200 fold diluted in 250 ml Erlenmeyer flask containing 25 ml of methionine precursor producing medium, followed by culture at 31° C., 200 rpm for 64 hours. HPLC was performed to compare with methionine precursor production capacity (Table 2 and Table 3).

B1: #11: feed-back resistant metA 11 gene product, amino acid sequence SEQ. ID. NO: 16 (protein, listed as Escherichia coli)
chain: MPIRVPDELPAVNFLREENVFVMSTSRASGQEIRPLKVLILNLMPKKIETENQFLRLLSNSPLQVDIQLLRIDSRESRNTPAEHLNNFYCNFEDIQDQNFDGLIVTGAPLGLVEFNDVAYWPQIKQVLEWSKDHVTSTLFVCWAVQAALNILYGIPKQTRTEKLSGVYEHHILHPHALLTRGFDDSFLAPHSRYADFPAALIRDYTDLEILAETEEGDAYLFASKDKRIAFVTGHPEYDAQTLAQEFFRDVEAGLDPDVPYNYFPHNDPQNTPRESWRSHGNLLFTNWLNYYVYQIAPYDLRHMYPTLD
Turning to B1, in series [1], the “% of specific activity retention” value is listed as 94%. Also, in the series on W3-BTJA strain, the “O-succinylhomoserine production (%)” value is given as 425% and the “O-succinylhomoserine production compared with wild type” value is listed as “the most effective production”.

B2: #10: feed-back resistant metA 10 gene product, amino acid sequence SEQ. ID. NO: 14 (protein, listed as Escherichia coli)
chain: MPIRVPDELPAVNFLREENVFVMTTSRASGQEIRPLKVLILNLMPKKIETENQFLRLLSNSPLQVDIQLLRIDSRESRNTPAEHLNNFYCNFEDIQDQNFDGLIVTGAPLGLVEFNDVAYWPQIKQVLEWSKDHVTSTLFVCWAVQAALNILYGIPKQTRTEQLSGVYEHHILHPHALLTRGFDDSFLAPHSRYADFPAALIRDYTDLEILAETEEGDAYLLASKDKRIAFVTGHPEYDAQTLAQEFFRDVEAGLDPDVPYNYFPHNDPQNTPRASWRSHGNLLFTNWLNYYVYRITPYDLRHMNPTLD
Consider B2, for which the “% of specific activity retention” value in series [1] is given as 97%. For the same molecule, in the series on W3-BTJA strain, the “O-succinylhomoserine production (%)” value turned out to be 392% and the “O-succinylhomoserine production compared with wild type” value was “the most effective production”.

B3: #37: feed-back resistant metA 37 gene product, amino acid sequence SEQ. ID. NO: 20 (protein, listed as Escherichia coli)
chain: MPIRVPDELPAVNFLREENVFVMTTSRAPGQEIRPLKVLILNLMPKKIETENQFLRLLSNSPLQVDIQLLRIDSRESRNTPAEHLNNFYCNFEDIQDQNFDGLIVTGAPLGLVGFNDVAYWPQIKQVLEWSKDHVTSTLSVCWAVQAALNILYGIPKQTRTEKLSGVYEHHILHPHALLTRGFDDSFLAPHSRYADFPAALIRDYTDLEILAETEEGDAYLFASKDKRIAFVTGHPEYDAQTLAQEFFRDVEAGLDPDVPYNYFPHNDPQNTPRASWRSHGNLLFTNWLNYYVYQITPYDLRHMNPTLD
For the molecule B3, in series [1], the “% of specific activity retention” value is listed as 83%. Also, the “O-succinylhomoserine production (%)” value in the series on W3-BTJA strain is given as 227%.

B4: #41: feed-back resistant metA 41 gene product, amino acid sequence SEQ. ID. NO: 22 (protein, listed as Escherichia coli)
chain: MPIRVPDELPAVNFLREENVFVMTTSRASGQEIRPLKVLILNLMPKKIETENQFLRLLSNSPLQVDIQLLRIDSRESRSTPAEHLNNFYCNFEDIQDQNFDGLIVTGAPLGLVEFNDVAYWPQIKQVLEWSKDHVTSTLIVCWAVQAALNILYGIPKQTRTEKLSGVYEHHILHPHALLTRGFDDSFLAPHSRYADFPAALIRDYTDLEILAETEEGDAYLFASKDKRIAFVTGHPEYDAQTLAQEFFRDVEAGLDPDVPYNYFPHNDPQNTPRASWRSHGNLLFTNWLNNYVYQITPYDLRHLNPTLD
As for B4, the “% of specific activity retention” value in series [1] was 74%. Also, in the series on W3-BTJA strain, the “O-succinylhomoserine production (%)” value came to 389%.

B5: #32: feed-back resistant metA 32 gene product, amino acid sequence SEQ. ID. NO: 18 (protein, listed as Escherichia coli)
chain: MPIRVPDELPAVNFLREENVFVMTTSRASGQEIRPLKVLILNLMPKKIETENQFLRLLSNSPLQVDIQLLRIDSRESRNTPAEHLNNFYCNFEDIQDQNFDGLIVTGAPLGLVEFNDVAYWPQIKQVLEWSKDHVTSTLFVCWAVQAALNILYGIPKQTRTEKLSGVYEHHILHPHALLTRGFDDSFLAPHSRYADFPAALIRDYTDLEILAETEEGDAYLFASKDKRIAFVTGHPEYDAQTLAQEFFRDVEAGLDPDVPYNYFPHNDPQNTPRASWRSHGNLLFTNWLHYYVYQITPYDLRHMNPTLD
In the case of B5, the “% of specific activity retention” value in series [1] worked out at 79%. For the same molecule, in the series on W3-BTJA strain, the “O-succinylhomoserine production (%)” value is on record as 396% and the “O-succinylhomoserine production compared with wild type” value is “the most effective production”.

B6: w.t.: wild type metA, homoserine O-succinyltransferase of E. coli (protein, UniProt P07623 2-309, looked up)
Homoserine …: PIRVPDELPAVNFLREENVFVMTTSRASGQEIRPLKVLILNLMPKKIETENQFLRLLSNSPLQVDIQLLRIDSRESRNTPAEHLNNFYCNFEDIQDQNFDGLIVTGAPLGLVEFNDVAYWPQIKQVLEWSKDHVTSTLFVCWAVQAALNILYGIPKQTRTEKLSGVYEHHILHPHALLTRGFDDSFLAPHSRYADFPAALIRDYTDLEILAETEEGDAYLFASKDKRIAFVTGHPEYDAQTLAQEFFRDVEAGLDPDVPYNYFPHNDPQNTPRASWRSHGNLLFTNWLNYYVYQITPYDLRHMNPTLD
As to B6, the “% of specific activity retention” value in series [1] worked out at 7.6%. Moreover, the “O-succinylhomoserine production (%)” value in the series with W3-BTJA strain worked out at 100%.

(Values after patent US7851180B2, “Microorganism producing L-methionine precursor and the method of producing L-methionine precursor using the microorganism” (CJ Cheiljedang Corporation, priority 2008, dated 2010).)
